Patent publication US20200087373A1 (UNIVERSITY OF COPENHAGEN, published 2020)
Each block holds one binder with its values, some of them ahead of it. Ends that are not written are not given here. * marks the point of attachment. C16 diacid = O=C(O)CCCCCCCCCCCCCCC(=O)*; Palmitoyl = CCCCCCCCCCCCCCCC(=O)*

Biological target: T1, human serum albumin (human, UniProt P02768 25-609)
T1 construct: also called HSA; human albumin
Assay: 125I-human GIP competition binding on hGIPR COS-7 cells with and without 2% HSA; fold change of IC50 taken as HSA binding

T1 sequence (P02768 25-609 limits assumed): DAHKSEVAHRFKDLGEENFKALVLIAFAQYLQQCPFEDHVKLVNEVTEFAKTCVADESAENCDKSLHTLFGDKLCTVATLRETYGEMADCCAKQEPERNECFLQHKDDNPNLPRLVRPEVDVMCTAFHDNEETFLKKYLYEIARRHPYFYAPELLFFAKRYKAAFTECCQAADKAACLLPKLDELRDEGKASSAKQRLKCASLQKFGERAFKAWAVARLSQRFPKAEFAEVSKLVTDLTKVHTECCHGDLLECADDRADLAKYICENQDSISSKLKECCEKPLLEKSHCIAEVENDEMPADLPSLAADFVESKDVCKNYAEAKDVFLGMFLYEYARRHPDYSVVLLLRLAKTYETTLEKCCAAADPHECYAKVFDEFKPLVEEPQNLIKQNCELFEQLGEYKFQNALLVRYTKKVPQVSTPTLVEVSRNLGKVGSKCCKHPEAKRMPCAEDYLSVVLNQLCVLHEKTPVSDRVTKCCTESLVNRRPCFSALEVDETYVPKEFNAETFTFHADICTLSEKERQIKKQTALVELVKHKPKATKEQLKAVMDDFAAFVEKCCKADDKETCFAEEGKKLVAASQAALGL

B1: AT117 [hGIP(3-30)NH2[H18K]-C16/18] (peptide)
peptide: EGTFISDYSIAMDKIK(Palmitoyl)QQDFVNWLLAQK-NH2
modifications: N-terminus assumed
SMILES: CCCCCCCCCCCCCCCC(=O)NCCCC[C@H](NC(=O)[C@@H](NC(=O)[C@H](CCCCN)NC(=O)[C@H](CC(=O)O)NC(=O)[C@H](CCSC)NC(=O)[C@H](C)NC(=O)[C@@H](NC(=O)[C@H](CO)NC(=O)[C@H](Cc1ccc(O)cc1)NC(=O)[C@H](CC(=O)O)NC(=O)[C@H](CO)NC(=O)[C@@H](NC(=O)[C@H](Cc1ccccc1)NC(=O)[C@@H](NC(=O)CNC(=O)[C@@H](N)CCC(=O)O)[C@@H](C)O)[C@@H](C)CC)[C@@H](C)CC)[C@@H](C)CC)C(=O)N[C@@H](CCC(N)=O)C(=O)N[C@@H](CCC(N)=O)C(=O)N[C@@H](CC(=O)O)C(=O)N[C@@H](Cc1ccccc1)C(=O)N[C@H](C(=O)N[C@@H](CC(N)=O)C(=O)N[C@@H](Cc1c[nH]c2ccccc12)C(=O)N[C@@H](CC(C)C)C(=O)N[C@@H](CC(C)C)C(=O)N[C@@H](C)C(=O)N[C@@H](CCC(N)=O)C(=O)N[C@@H](CCCCN)C(N)=O)C(C)C
binding result: binds

B2: AT169 [hGIP(5-30)NH2[I7K]-C16diacid/7] (peptide)
peptide: TFK(C16 diacid)SDYSIAMDKIHQQDFVNWLLAQK-NH2
modifications: N-terminus assumed
SMILES: CC[C@H](C)[C@H](NC(=O)[C@H](CO)NC(=O)[C@H](Cc1ccc(O)cc1)NC(=O)[C@H](CC(=O)O)NC(=O)[C@H](CO)NC(=O)[C@H](CCCCNC(=O)CCCCCCCCCCCCCCC(=O)O)NC(=O)[C@H](Cc1ccccc1)NC(=O)[C@@H](N)[C@@H](C)O)C(=O)N[C@@H](C)C(=O)N[C@@H](CCSC)C(=O)N[C@@H](CC(=O)O)C(=O)N[C@@H](CCCCN)C(=O)N[C@H](C(=O)N[C@@H](Cc1c[nH]cn1)C(=O)N[C@@H](CCC(N)=O)C(=O)N[C@@H](CCC(N)=O)C(=O)N[C@@H](CC(=O)O)C(=O)N[C@@H](Cc1ccccc1)C(=O)N[C@H](C(=O)N[C@@H](CC(N)=O)C(=O)N[C@@H](Cc1c[nH]c2ccccc12)C(=O)N[C@@H](CC(C)C)C(=O)N[C@@H](CC(C)C)C(=O)N[C@@H](C)C(=O)N[C@@H](CCC(N)=O)C(=O)N[C@@H](CCCCN)C(N)=O)C(C)C)[C@@H](C)CC
binding result: binds

B3: AT173 [hGIP(5-30)NH2[S11K]-C16diacid/11] (peptide)
peptide: TFISDYK(C16 diacid)IAMDKIHQQDFVNWLLAQK-NH2
modifications: N-terminus assumed
SMILES: CC[C@H](C)[C@H](NC(=O)[C@H](CCCCNC(=O)CCCCCCCCCCCCCCC(=O)O)NC(=O)[C@H](Cc1ccc(O)cc1)NC(=O)[C@H](CC(=O)O)NC(=O)[C@H](CO)NC(=O)[C@@H](NC(=O)[C@H](Cc1ccccc1)NC(=O)[C@@H](N)[C@@H](C)O)[C@@H](C)CC)C(=O)N[C@@H](C)C(=O)N[C@@H](CCSC)C(=O)N[C@@H](CC(=O)O)C(=O)N[C@@H](CCCCN)C(=O)N[C@H](C(=O)N[C@@H](Cc1c[nH]cn1)C(=O)N[C@@H](CCC(N)=O)C(=O)N[C@@H](CCC(N)=O)C(=O)N[C@@H](CC(=O)O)C(=O)N[C@@H](Cc1ccccc1)C(=O)N[C@H](C(=O)N[C@@H](CC(N)=O)C(=O)N[C@@H](Cc1c[nH]c2ccccc12)C(=O)N[C@@H](CC(C)C)C(=O)N[C@@H](CC(C)C)C(=O)N[C@@H](C)C(=O)N[C@@H](CCC(N)=O)C(=O)N[C@@H](CCCCN)C(N)=O)C(C)C)[C@@H](C)CC
binding result: binds

Second part, the binder after the results:

binding result: binds
B4: AT171 [hGIP(5-30)NH2[D9K]-C16diacid/9] (peptide)
peptide: TFISK(C16 diacid)YSIAMDKIHQQDFVNWLLAQK-NH2
modifications: N-terminus assumed
SMILES: CC[C@H](C)[C@H](NC(=O)[C@H](CO)NC(=O)[C@H](Cc1ccc(O)cc1)NC(=O)[C@H](CCCCNC(=O)CCCCCCCCCCCCCCC(=O)O)NC(=O)[C@H](CO)NC(=O)[C@@H](NC(=O)[C@H](Cc1ccccc1)NC(=O)[C@@H](N)[C@@H](C)O)[C@@H](C)CC)C(=O)N[C@@H](C)C(=O)N[C@@H](CCSC)C(=O)N[C@@H](CC(=O)O)C(=O)N[C@@H](CCCCN)C(=O)N[C@H](C(=O)N[C@@H](Cc1c[nH]cn1)C(=O)N[C@@H](CCC(N)=O)C(=O)N[C@@H](CCC(N)=O)C(=O)N[C@@H](CC(=O)O)C(=O)N[C@@H](Cc1ccccc1)C(=O)N[C@H](C(=O)N[C@@H](CC(N)=O)C(=O)N[C@@H](Cc1c[nH]c2ccccc12)C(=O)N[C@@H](CC(C)C)C(=O)N[C@@H](CC(C)C)C(=O)N[C@@H](C)C(=O)N[C@@H](CCC(N)=O)C(=O)N[C@@H](CCCCN)C(N)=O)C(C)C)[C@@H](C)CC

binding result: binds
B5: AT175 [hGIP(5-30)NH2[A13K]-C16diacid/13] (peptide)
peptide: TFISDYSIK(C16 diacid)MDKIHQQDFVNWLLAQK-NH2
modifications: N-terminus assumed
SMILES: CC[C@H](C)[C@H](NC(=O)[C@H](CCCCN)NC(=O)[C@H](CC(=O)O)NC(=O)[C@H](CCSC)NC(=O)[C@H](CCCCNC(=O)CCCCCCCCCCCCCCC(=O)O)NC(=O)[C@@H](NC(=O)[C@H](CO)NC(=O)[C@H](Cc1ccc(O)cc1)NC(=O)[C@H](CC(=O)O)NC(=O)[C@H](CO)NC(=O)[C@@H](NC(=O)[C@H](Cc1ccccc1)NC(=O)[C@@H](N)[C@@H](C)O)[C@@H](C)CC)[C@@H](C)CC)C(=O)N[C@@H](Cc1c[nH]cn1)C(=O)N[C@@H](CCC(N)=O)C(=O)N[C@@H](CCC(N)=O)C(=O)N[C@@H](CC(=O)O)C(=O)N[C@@H](Cc1ccccc1)C(=O)N[C@H](C(=O)N[C@@H](CC(N)=O)C(=O)N[C@@H](Cc1c[nH]c2ccccc12)C(=O)N[C@@H](CC(C)C)C(=O)N[C@@H](CC(C)C)C(=O)N[C@@H](C)C(=O)N[C@@H](CCC(N)=O)C(=O)N[C@@H](CCCCN)C(N)=O)C(C)C

binding result: binds
B6: AT181 [hGIP(5-30)NH2[D21K]-C16diacid/21] (peptide)
peptide: TFISDYSIAMDKIHQQK(C16 diacid)FVNWLLAQK-NH2
modifications: N-terminus assumed
SMILES: CC[C@H](C)[C@H](NC(=O)[C@H](CO)NC(=O)[C@H](Cc1ccc(O)cc1)NC(=O)[C@H](CC(=O)O)NC(=O)[C@H](CO)NC(=O)[C@@H](NC(=O)[C@H](Cc1ccccc1)NC(=O)[C@@H](N)[C@@H](C)O)[C@@H](C)CC)C(=O)N[C@@H](C)C(=O)N[C@@H](CCSC)C(=O)N[C@@H](CC(=O)O)C(=O)N[C@@H](CCCCN)C(=O)N[C@H](C(=O)N[C@@H](Cc1c[nH]cn1)C(=O)N[C@@H](CCC(N)=O)C(=O)N[C@@H](CCC(N)=O)C(=O)N[C@@H](CCCCNC(=O)CCCCCCCCCCCCCCC(=O)O)C(=O)N[C@@H](Cc1ccccc1)C(=O)N[C@H](C(=O)N[C@@H](CC(N)=O)C(=O)N[C@@H](Cc1c[nH]c2ccccc12)C(=O)N[C@@H](CC(C)C)C(=O)N[C@@H](CC(C)C)C(=O)N[C@@H](C)C(=O)N[C@@H](CCC(N)=O)C(=O)N[C@@H](CCCCN)C(N)=O)C(C)C)[C@@H](C)CC
